Laboratory results reported in paper doi:10.1101/2024.01.25.576086.

Legend:
[1] = biological target: biotinylated pVHL-Elongin B-Elongin C complex (bio-VBC) (human) (UniProt P40337); assay: SPR
VHL-LgBiT (human) = VHL-LgBiT (human) (UniProt P40337)

KD with compound 4 [1] | HiBiT degradation assay of CDO1 in HEK293T cells with compound 8; absDC50 (VHL-LgBiT (human)) | Substance
> 40 µM | – | CDO1(Q99N) (from UniProt Q16878 1-200) (enzyme)
– | 8 nM | SmBiT-CDO1 (from UniProt Q16878 1-200) (enzyme)
